Source: paper PMC5556974 (Developmental cell, 2017)
Values belong to the molecule of their own block, whether it stands above or below them.

Key:
GST-CEP19 (human) = GST-CEP19 (human) (UniProt Q96LK0); experiment: pull-down
[1] = molecular target: GST-CrCEP19 (Chlamydomonas reinhardtii); experiment: pull-down
[2] = molecular target: the molecule itself

Chain of GST-CEP19 (human) (Q96LK0 whole entry): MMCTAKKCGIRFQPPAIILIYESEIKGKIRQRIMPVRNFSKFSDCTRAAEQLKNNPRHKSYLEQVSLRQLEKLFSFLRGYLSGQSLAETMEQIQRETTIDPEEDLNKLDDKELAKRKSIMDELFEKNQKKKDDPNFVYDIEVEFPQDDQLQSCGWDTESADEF

- fold enhancement of binding by GTP addition (GST-CEP19 (human)): 5 fold
Molecule: MYC-RABL2B, full length (in vitro translated) (from UniProt Q9UNT1 1-228) (natural protein)

- fold enhancement of binding by GTP addition [1]: 5 fold
Molecule: MYC-CrRabl2 (in vitro translated) (natural protein)

B1: untagged human RABL2B (natural protein, UniProt Q9UNT1-2 1-229, looked up)
chain: MAEDKTKPSELDQGKYDADDNVKIICLGDSAVGKSKLMERFLMDGFQPQQLSTYALTLYKHTATVDGRTILVDFWDTAGQERFQSMHASYYHKAHACIMVFDVQRKVTYRNLSTWYTELREFRPEIPCIVVANKIDADINVTQKSFNFAKKFSLPLYFVSAADGTNVVKLFNDAIRLAVSYKQNSQDFMDEIFQELENFSLEQEEEDVPDQEQSSSIETPSEEAASPHS
- stoichiometry N [2]: 4
